Test results published in the nanobody polyreactivity screen of Harvey et al. (2022).

Experiment: yeast display, Sf9 membrane polyspecificity reagent, FACS + sequencing; frameworks hold sequencing errors
Summary of the method: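 Synthetic nanobody libraries on Saccharomyces cerevisiae BJ5465 were galactose-induced for 36–48 hours, stained 1 hour at 4 °C with 10% biotinylated, detergent-solubilized Sf9 membrane reagent and enriched on streptavidin microbeads. FACS then separated cells into low and high (top ~1%) gates by anti-HA (expression) and streptavidin (reagent binding) fluorescence. Genes were colony-PCR amplified, MiSeq 2 × 250 sequenced and CDR-length filtered. A clone's polyreactivity label is that of its gate of origin.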

QVQLVESGGGLVQAGGSLRLSCAASGRIFRAYAMGWYRQAPGKERELVAAISSGGITSYADSVKGRFTISRDNAKNTVYLQMNSLKPEDTAVDYCAALVYPYWGGSMYYWGQGTQVTVSS
polyreactivity (PSR sort gate): high polyreactivity

QVQLVESGGGLVQAGGSLRLSCAASGRTFYRYVMGWYRQAPGKERALVAAITWSGGSTYYADSVKGRFTISRDNAKNTVYLQMNSLKPEDTAVYYCAKGLYDASRRYYYWGQGTQVTVSS
polyreactivity (PSR sort gate): high polyreactivity

QVQLVESGGGLVQAGGSLRLSCAASGRIFPFYAMGWYRQAPGKERELVAAISSSGGSTYYADSVKGRFTISRDHAKNTVYFQMNSLKPEDTAVYYCAATRNSDGMGYWGQGTQVTVSS
polyreactivity (PSR sort gate): low polyreactivity

QVQLVESGGGLVQAGGSLRLSCAASGFTFTRYGMGWYRQSPGKERELVAGISSGGSTNYADSVKGRFTISRDNSKNTVYLQMNSLKPEDTAVYYCAAGFYSHGIELGYWGQGTQVTVSS
polyreactivity (PSR sort gate): high polyreactivity

QDQVVESGGGVVQAGGSLRLICAAYGSTLRYYDMGWYRQAPGKERELVAAISRGCSTYYADSVKGRFTISRDNAKNTVYLLMNSLKPEETAVFYCNKEYPSSYEYDYWGQGTQVTVSS
polyreactivity (PSR sort gate): low polyreactivity

QVQLVESGGGLVQAGGSLRLSCAASGSIFQSYTMGGYRQAPGKERELVAAINSGGRTNYADSVKGRFTITRDNAKYTVYLQMNSLKPEDTAVYYCAKRLSTRASFGEEDSWGQGTQVTVSS
polyreactivity (PSR sort gate): low polyreactivity

QVQLVESGGGLVQAGVSLRLSCAASGRIFGPYAMGWYRQAPGKERELVAAITWRGDRTYYADSVKGRFTISRDNAKNTVYLQMNSLKPEDTAVYYCAARGGRSEYDYWGLGTQVTVSS
polyreactivity (PSR sort gate): low polyreactivity

QVQLQESGGGLMQAGGSQRLSCAASGSISYYSDMAWYRQAPGKEREFVAGIGYGTSTNYADSVKGRFTTSRDNAKNTVYLQMISMKPEDTAVYYCAAYQGNGYEFYYWGQGTQVTVRS
polyreactivity (PSR sort gate): low polyreactivity

QVQLVESGGGLVQAGGSLRLSCAASGNTYTSYAMGWYRQAPGKDRELVAAISASGSSTYYADSVKGRFTISRDNAKNTVYLQMNSLKPEDTAVFYCARQWYWRPGYYMGQGYEYWGQGTQVTVSS
polyreactivity (PSR sort gate): low polyreactivity

QVQLLESGGGLVQAGGSLRLSCAASGLTIKQYAMGWYRQAPGKESELVAAISKSGGRTYYADSVKGRFTISRDNAKNTVYLQMNSLKPEDTAVYYCNARAGQRQGWEYDYWGQGTQVTVSS
polyreactivity (PSR sort gate): high polyreactivity

QVQLVESGGGLVQAGGSLSLSCAASGYIFRYYAMGSYRQAPGKEREFGAAISWRGGSTYYADSVKGRFTISRDNAKNTVYLQMNRLKPEDTEFYYCAAGYFSFFGHYNAGLDYWGQGTQVTVSS
polyreactivity (PSR sort gate): high polyreactivity

QVQLVESGGGLVQAGGSLRLSCAASGRTIPAYAMGWYRQAPGKERELVAAISWGGGSTYYADSVKGRFTISRDNAKNTVYLQMNSLKPEDTAVYYCAVAGYWFAVAEYDYWGQGTQVTVSS
polyreactivity (PSR sort gate): low polyreactivity

QVQLVESGGGLVQAGGSLRLSCAASGRIFYGYVMGWYRQAPGKETELVAAMTWSGSRTYYADSVKGRFTISRDNAKNTVYLQMNSLKPEDTAVYYCAARIPSDGYSYWGQVTQVTVSS
polyreactivity (PSR sort gate): high polyreactivity

QVQLVESGGGLVQAGGSLRLSCAASGLTFYNNAMGWYRQAPGKERELVARISSGGSTYYADSVKGRFTISRDNAKNTVYLQMNSLKPEDTAVYYCAAGRGYWWWYGYDYWGQGTQVTVSS
polyreactivity (PSR sort gate): low polyreactivity

QVQLVESGGGLVQAGGSLRLSCAASGRTFHRNAMGWYRQAPGKERELVAAITGDGRTNYADSVKGRFTISRDNAKNTVYLQMNSLKPEDTAVYYCNRDNDYYRPGGRPVGIFDYWGQGTQVTVSS
polyreactivity (PSR sort gate): low polyreactivity

QVQLVESGVGLVQAGGSLRLSCAASGRIVWGYAMGWYRQAPGKERELVATITRGGSTNYADSVKGRFTISRDNAKHTVYLQMNSLKPEDTAVYYCARDWGKSEYDYWGQGTQVTVSS
polyreactivity (PSR sort gate): high polyreactivity

QVQLVESVGGIVQAGGSLRLSCAASGSIINWYAMGWYRQAPGKERELVAAISSSGSTNYADSVKGRFTISRDNAKNTVYLQMNSLKPEDTAVYYCNADEYYLNNYNYGYWGQGTQVTVSS
polyreactivity (PSR sort gate): low polyreactivity

QVQLVESGGGLVQAGGSLRLSCAASGRTFPGNDMGWYRQAPGKERELVAAISGNGGNTNYADSVKGRFTISRDNAKNTVYLQMNSLKPEDTAVYYCKADVPSDGYPGYPGGFESWGQGTQVTVSS
polyreactivity (PSR sort gate): low polyreactivity

QVQLEDAGGGLVQAGGSLRLSCAASGRIIGWYTIGRYRQAPGKERELVATSSSSGASTYYADSVKGRFTISRDNAKNSVYFQMNSLKPEDTGVYYCAAQYYPYSFAHRYGYWGQGSQVTVSS
polyreactivity (PSR sort gate): high polyreactivity

QVQLVESGGGLVQAGGSLRLSCAASGFIFRRYAMGWYRQAPGKERELVAAITSSGTSTYYADSVKGRFTISRDNAKNTVYLQMNSLKPEDTAVYYCNAAQYYERFNHWGQGTQVTVSS
polyreactivity (PSR sort gate): high polyreactivity

QDQLVESGGGLVQAGGSLRLSCAASGNTFVSNAMGWYRQAPGKERELVAAIDSGGSTNYADSVKGRFTISRDNAKYTVYLQMNSLKPEDTAVYYCNRTSVYYYYWGQGTQVTVSS
polyreactivity (PSR sort gate): low polyreactivity

QVQLVESGGGLVQAGGSLRLSCAASGIIIVGNSMGWYRQAPGKQRELVASINSGGSTYYADSVKGRFTISRDNAKNTVYLQMNSLKPEDTAVYDCAVEEDRYYYDDYDYCGQGTQVTVSS
polyreactivity (PSR sort gate): low polyreactivity

QVQLVESGGGLVQAGGSLRLSCAASGRIFDRYAMGWYRQAPGKERELVAAITSSGGRTYYADSVKGRFTISRDNAKNTVYLQMYSLKPEDTAVYYCAARWYGGYNYWGQGTQVTVSS
polyreactivity (PSR sort gate): high polyreactivity

QVQLVESGGGLVQAGGSLRLSCAASGSTFRGNAMGWSRQAPGKERELVAAISSSGGSTYYADSVKGRFTISRDNAKNTVYLQMNSLKPEDTAVYYCAALYHWTYDYWGQGTQVTVSS
polyreactivity (PSR sort gate): low polyreactivity

QVQLVESGGGLVQAGGSLRLSCAASGSIFAWYGMGWYRQAPGKERELVAAITSTGSTYYADSVKGRFTISRDNAKNTVYLQMNSLKPEDTAVYYCNDYSVYLWRPGDYWGQGTQVTVSS
polyreactivity (PSR sort gate): low polyreactivity

QVQLVESGGGLVQAGGSLRLSCAASGSTFYLYAMGWYRQAPGKERELVAAISWSGGDKYYADSVKGRFTISRDNAKNTVYLQMNSLKPEDTAVYYCAAEITDSYPGSPRRRDYWGQGTQVTVSS
polyreactivity (PSR sort gate): low polyreactivity

QDQLVESGGGLVQAGGSLRLSCAASGYTFRYAMGWNIQAPGKERELVAGITSSGGSTYYADSVKGRFTISRDNAKNTVYLQMNSLKPEDTAVYYCNADFFVWLYPHYLIFDYWGQGTQVTVSS
polyreactivity (PSR sort gate): low polyreactivity

QVQLRESGGGLVQAGGSLRLSCAASGRIFSVYAMGWDRQAPGKERELVAAITRVGSTNYADSVKGRFTISRDNAKNTVYLQMNSLKPEDTAVYYCAARSTGYPTGRMYYWGQGTQVTVSS
polyreactivity (PSR sort gate): high polyreactivity

QVQLVESGGGFVQAGGSLRLSCAASGRIFPEYSRGWYRQAPGKERELVASINSDGSTNYADSVKGRFTISRDNAKNTVYLQMNSLKPEDTAVYYCATEGSGTGIFISKFDYWGQGTQVTVSS
polyreactivity (PSR sort gate): low polyreactivity

QVQLVESGGGLVQAGGSLRLSCAASGFTFAYYAMGWYRQAPGKERELVAAISERGGSTYYADSVKGRFTISRDNAKNTVDLQMNSLKPEDTAVYYCARTFWDSPWYQSSYYSWGQGTQVTVSS
polyreactivity (PSR sort gate): low polyreactivity

QVQLVESGGGLVQAGGSLRLSCAASGRIFLWYAMGWYRQAPGKERELVAAISSNGGSTRYADSVKGRFTFSRDNAKNTVYLQMNSLKPEDTAVYYCNADVHWNRYPYGGNGYGYWGQGTQVTVSS
polyreactivity (PSR sort gate): low polyreactivity

QVQLVESGGGLVQAGGSLRLSCAASGIIFWSYTMGWYSQAPGKERELVAVITSDGSTNYADSVKGRITISRDNAKNSVYLQMKSLKPEDTAVYDCAADPWLGTGRYDYWGQGTQVTVSS
polyreactivity (PSR sort gate): low polyreactivity
